# What was measured:
# NCC(=O)O = experiment: purified protein; details: Na+ primary substrate (S1) binding site, near F259 and I359
# C[C@H](N)C(=O)O = experiment: purified protein; details: Na+ primary substrate (S1) binding site, W259
Substance,Km (NCC(=O)O) [µM],Km (C[C@H](N)C(=O)O) [µM]
LeuT (Aquifex aeolicus VF5),1.2 ± 0.2,–
LeuT (Aquifex aeolicus VF5; F259W),–,3.7 ± 0.9
